From PMC10954664 come the findings set out here.

The target of the test is Cysless ATL1_(cyto)-K400C (human) (UniProt Q8WXF7). Kind of test: single-molecule photobleaching step counting (TIRF); LD655-labelled, biotinylated ATL1cyto-K mixed at ~2 μM with 1 mM GTPγS or GDP/AlF4-, diluted and immobilised (~0.3 nM) in a streptavidin-coated microfluidic chamber.

In turn, “Cysless ATL1_(cyto)-K400C (from UniProt Q8WXF7 1-447) (domain or fragment)” yielded a stoichiometry N of 2.
